One block for each binder: values may come before it.
Assays:
[1] = molecular target: T1, E. coli-expressed recombinant human IL-13 (human, UniProt P35225 35-146); test: BIAcore analysis 1, antibody captured, IL-13 in solution
T1 construct: Untagged E. coli-expressed human IL-13; also called hIL-13; human IL13 (CA)
Procedure: (§1) Completed for both human and cynomolgus IL-13 (E. coli-expressed protein). The quoted KD values are the average from 5 different IL-13 concentration curves (done in triplicate). Note that mass transfer issues were apparent in this analysis and that a modified experimental protocol (to correct for this issue) has been completed in analysis 4 (where no mass transfer issues were present).
(§2) The kinetics analysis was performed on a Biacore 3000 machine, using an antibody capture method. Briefly, for the chimeric 6A1 and humanised antibody constructs Protein A capture was used, whilst for the parental murine 6A1 antibody, capture was by a anti-mouse Fc antibody supplied by Biacore. Briefly, the method is as follows, the capture ligand was immobilised to a CM5 Biosensor chip by primary amine coupling in accordance with Biacore standard protocols and using the reagents supplied in Biacores' primary amine coupling kit. The method involves activation CM5 sensor surface by passing a solution of 50 mM N-hydroxy-succinimide (NHS) and 200 mM N-ethyl-N′-dimethylaminopropyl […] (EDC) over the surface. Then, the capture ligand (dissolved in acetate buffer pH5 or pH4.5) was coupled to the activated sensor surface after which any still activated esters were blocked by an injection of 1M ethanolamine hydrochloride, pH8.5.
(§3) The candidate antibody was then passed over the Protein A or anti-mouse Fc antibody surface, depending on whether it was human or mouse in origin and captured. Once a stable binding signal was seen IL13 was passed over the captured antibody surface at various defined concentrations. The subsequent binding curves were analysed with Biacore analysis software BIAeval v4.1 to determine kinetics. The experiments were carried out using Biacore HBS-EP buffer.

[2] = molecular target: T2, E. coli-expressed recombinant cynomolgus IL-13 (cynomolgus, UniProt Q5I6E4 21-132 (Macaca thibetana entry)); test: as above
T2 construct: also called cyno IL13 (CA); cIL-13
T2 chain: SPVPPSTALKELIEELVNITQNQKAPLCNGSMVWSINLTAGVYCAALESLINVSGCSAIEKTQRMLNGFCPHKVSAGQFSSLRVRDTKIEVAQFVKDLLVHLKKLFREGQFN
Procedure: as §1, §2, §3

[3] = molecular target: T2, E. coli-expressed recombinant …; test: cynomolgus IL-13 binding sandwich ELISA
[4] = molecular target: T3, alanine scanning peptide 64 (human, N-terminal biotin); test: alanine scanning peptide ELISA, n=2
T3 construct: the entry already carries the change; also called K104A peptide
T3 peptide: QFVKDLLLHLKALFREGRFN
Description: (§4) An ELISA method was used to detect binding of immobilised biotinylated peptide to the parental mAb 6A1 and L1+A1.
(§5) This was to determine if there was any major plate-to-plate variation and in both cases, there was no apparent variation.

[5] = molecular target: T4, alanine scanning peptide 67 (human, N-terminal biotin); test: alanine scanning peptide ELISA, n=2
T4 construct: the entry already carries the change; also called R107A peptide
T4 peptide: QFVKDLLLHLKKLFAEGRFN
Description: as §4, §5

[6] = molecular target: T5, alanine scanning peptide 68 (human, N-terminal biotin); test: alanine scanning peptide ELISA, n=2
T5 peptide: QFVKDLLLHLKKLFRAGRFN
Description: as §4, §5

[7] = molecular target: T6, alanine scanning peptide 62 (human, N-terminal biotin); test: alanine scanning peptide ELISA, n=2
T6 peptide: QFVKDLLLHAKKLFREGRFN
Description: as §4, §5

[8] = molecular target: T7, alanine scanning peptide 63 (human, N-terminal biotin); test: alanine scanning peptide ELISA, n=2
T7 construct: the entry already carries the change; also called K103A peptide
T7 peptide: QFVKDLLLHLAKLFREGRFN
Description: as §4, §5

[9] = molecular target: T8, alanine scanning peptide 1 (parental sequence peptide) (human, N-terminal biotin); test: alanine scanning peptide ELISA, n=2
T8 construct: also called parental peptide
T8 peptide: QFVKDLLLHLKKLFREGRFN
Description: as §4, §5

[10] = molecular target: T9, alanine scanning peptide 66 (human, N-terminal biotin); test: alanine scanning peptide ELISA, n=2
T9 construct: the entry already carries the change; also called F106A peptide
T9 peptide: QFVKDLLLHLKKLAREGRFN
Description: as §4, §5

[11] = molecular target: T10, alanine scanning peptide 65 (human, N-terminal biotin); test: alanine scanning peptide ELISA, n=2
T10 construct: the entry already carries the change; also called L105A peptide
T10 peptide: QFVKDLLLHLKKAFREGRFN
Description: as §4, §5

[12] = molecular target: T1, E. coli-expressed recombinant human …; test: human IL-13 binding sandwich ELISA
[13] = molecular target: T1, E. coli-expressed recombinant human …; test: cell-based or functional assay
[14] = molecular target: T2, E. coli-expressed recombinant …; test: cell-based or functional assay
[15] = molecular target: mammalian-expressed (CHO cell) human IL-13 (human, UniProt P35225 35-146, limits assumed); test: cell-based or functional assay
Sequence of mammalian-expressed (CHO cell) human IL-13 (P35225 other isoform, or with tags, fused parts or gaps limits assumed): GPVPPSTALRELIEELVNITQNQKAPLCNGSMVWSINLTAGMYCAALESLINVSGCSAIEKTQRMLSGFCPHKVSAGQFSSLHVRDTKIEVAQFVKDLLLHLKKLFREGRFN

[16] = molecular target: E. coli-expressed recombinant Q130 human IL-13 (human, UniProt P35225 35-146, limits assumed); test: cell-based or functional assay
Sequence of E. coli-expressed recombinant Q130 human IL-13 (P35225 35-146 limits assumed): as the sequence (P35225 other isoform, or with tags, fused parts or gaps limits assumed) above, with R110Q counted along it

[17] = molecular target: T11, native (PBMC derived) human IL-13 (human, UniProt P35225 35-146, limits assumed); test: ELISA on Th2 cell supernatant read against a standard curve
T11 construct: IL-13 in supernatant of stimulated human CD4+ Th2 cells; also called native human IL-13; Native IL-13
T11 sequence (P35225 other isoform, or with tags, fused parts or gaps limits assumed): as the sequence (P35225 other isoform, or with tags, fused parts or gaps limits assumed) above

[18] = molecular target: T12, E. coli-expressed recombinant det-1 tagged human IL-13 (human, UniProt P35225 35-146); test: competition ELISA: inhibition of det-1 tagged human IL-13 binding to human IL-13Rα2-Fc
T12 construct: also called Det-1 tagged human IL-13 (made in-house); not shown: det-1 tag
T12 sequence (P35225 other isoform, or with tags, fused parts or gaps): as the sequence (P35225 other isoform, or with tags, fused parts or gaps limits assumed) above

T1 sequence (P35225 other isoform, or with tags, fused parts or gaps): as the sequence (P35225 other isoform, or with tags, fused parts or gaps limits assumed) above

Kd [1]: 0.035 nM
koff [1]: 6.78e-05 s⁻¹
kon [1]: 1.96e+06 M⁻¹ s⁻¹
Kd [2]: 0.061 nM
koff [2]: 5.6e-05 s⁻¹
kon [2]: 914000 M⁻¹ s⁻¹
EC50 [3]: 0.039 µg/mL
Average A490 [4]: 1.47 A490
Average A490 [5]: 0.595 A490
Average A490 [6]: 3.58 A490
Average A490 [7]: 3.49 A490
Average A490 [8]: 3.28 A490
Average A490 [9]: 3.54 A490
Average A490 [10]: 3.6 A490
Average A490 [11]: 3.85 A490
EC50 [12]: 0.049 µg/mL
Mean ND50 for 2 assays [13]: 0.193 µg/mL
Mean ND50 for 2 assays [14]: 0.078 µg/mL
Mean ND50 for 2 assays [15]: 0.44 µg/mL
Mean ND50 for 2 assays [16]: 0.213 µg/mL
Native IL-13 (ng/ml) detected in Th2 supernatant [17]: 22.5 ng/mL
IC50 [18]: 0.02 µg/mL
B1: monoclonal antibody 6A1 (antibody, IgG1, V domains shown)
VH: EIQLQQSVAELVRPGASVRLSCTASGFYIKDTYMHWVIQRPEQGLEWIGTIDPANGNTKYVPKFQGKATITADTSSNTAYLRLSSLTSEDTAIYYCARSIYDDYHYDDYYAMDYWGQGTSVTVSS
VL: DVLMTQTPLSLPVSLGDQASISCRSSQNIVHINGNTYLEWYLQKPGQSPKLLIYKISDRFSGVPDRFSGSGSGTDFTLKISRVEAEDLGVYYCFQGSHVPWTFGGGTKLEIK
notes: also called 6A1 parental mAb; parental mouse mAb 6A1

Kd [1]: 0.3 nM
koff [1]: 0.000155 s⁻¹
kon [1]: 507000 M⁻¹ s⁻¹
Kd [2]: 0.035 nM
koff [2]: 1.55e-05 s⁻¹
kon [2]: 446000 M⁻¹ s⁻¹
EC50 [3]: 0.021 µg/mL
Average A490 [4]: 1.82 A490
Average A490 [5]: 0.816 A490
Average A490 [6]: 2.81 A490
Average A490 [7]: 2.83 A490
Average A490 [8]: 2.65 A490
Average A490 [9]: 2.85 A490
Average A490 [10]: 2.84 A490
Average A490 [11]: 3.02 A490
EC50 [12]: 0.018 µg/mL
Mean ND50 for 2 assays [13]: 0.428 µg/mL
Mean ND50 for 2 assays [14]: 0.078 µg/mL
Mean ND50 for 2 assays [15]: 0.975 µg/mL
Mean ND50 for 2 assays [16]: 0.438 µg/mL
Native IL-13 (ng/ml) detected in Th2 supernatant [17]: 25.1 ng/mL
IC50 [18]: 0.113 µg/mL
B2: L1+A1 (antibody, human IgG1, kappa, V domains shown)
VH: QVQLVQSGAEVKKPGSSVKVSCKASGFYIKDTYMHWVRQAPGQGLEWMGTIDPANGNTKYVPKFQGRVTITADESTSTAYMELSSLRSEDTAVYYCARSIYDDYHYDDYYAMDYWGQGTLVTVSS
VL: DIVMTQSPLSLPVTPGEPASISCRSSQNIVHINGNTYLEWYLQKPGQSPRLLIYKISDRFSGVPDRFSGSGSGTDFTLKISRVEADDVGIYYCFQGSHVPWTFGQGTKLEIKR
notes: Humanised 6A1, VH construct A1 and VL construct L1, human gamma1 wild type / kappa constant regions; also called A1L1; humanised anti-IL-13 mAb L1+A1

Reference: US20110243928A1 (published 2011)
